This passage reports protein production results from a protein production outcome set (Wang et al. 2014).

A short description of this data set: label from the status in PepcDB records.

For the sequence “MPSLTPRCIIVRHGQTEWSKSGQYTGLTDLPLTPYGEGQMLRTGESVFRNNQFLNPDNITYIFTSPRLRARQTVDLVLKPLSDEQRAKIRVVVDDDLREWEYGDYEGMLTREIIELRKSRGLDKERPWNIWRDGCENGETTQQIGLRLSRAIARIQNLHRKHQSEGRASDIMVFAHGHALRYFAAIWFGLGVQKKCETIEEIQNVKSYDDDTVPYVKLESYRHLVDNPCFLLDAGGIGVLSYAHHNIDEPALELAGPFVSPPEEESQHGDV”, the protein production entry is reported as “not failed”. “MPSQSFNAFCPDWATALLNGFSQIFLQRHPLCGLLCLLAILVSAPALLGAALLGALAGLLTAQRRWYAKADRQAGLFSYNGVLLGLLLGLYLPWSVLLPPLIIAAGGLSAIITQQWLKRARNPASLPAYTAPFVGLGWLLLSLIEPLPAATQGVPGLSLANLLGGLFQGLGQIMFLGQPLAGLLILLGLLLASRRAAAWALFGSACGLLFALLLQEHAQALQGLGGYNCALVALALGQQARHPWRPLLGMLLALLISPGLVALGLAPLTAPFVLACWLVHTVDRVLGRNVRGDAPCAPPANPPRLR”: the protein production result is given as “failed”. With “MPSSRRVRSRCCAFGITKRFACIRPACQRARMDAQMTNFETRLRENAAKTEALLGHLLSGEARADEITRPQNLLEAMRHGVLNGGKRLRPFLVIESVALLGGDAEAGLHVGAALECLHCYSLVHDDLPAMDDDDLRRGQPTVHRKFDEATAILAGDSLLTLAFDIIASDDNPLAAERKAALVISLARAAGIGGMAGGQALDLAAEKKAPDEDGIITLQAMKTGALLRFACEAGAIIAGSNQAERQRLRLFGEKIGLSFQLADDLLDLTADAATMGKATGKDAARGKGTLVALRGEAWAREKLQE” the entry was “not failed”; with “MPSSSNSAAFSLDEFAKALDKHDYHAEKGQTVHGKICQHANEGVYVDFGGKSPGFVPVQELGLRPHAEIEDSFPLDSAWDFLVTSEQNDEGQVRLSRRQLQIQQSWENLAELEESGKTLEMVVTGTNKGGVVGDVEGLRGFIPRSHLMHKDNMDALVGQVLKAHILEANQDNNKLVLTQRRIQQAESMGKIAAGNIYEGKVAKIQPYGVFVEIEGVTGLLHVSQVSGTRVDSLNTLFAFGQAISVYVQEIDEYKNRISLSTRILETYPGELVEKFDEMMADAPNRLPLVQSKQNLGDKQEQLEKSLEHHHHHH”, “failed”. With “MPSSTFSGTVSTPKLSVAVDMGNPFLNLTVDAFLKIGAVGVTKSLAEDTYKAIDKGSLSKSTLEHALKKLCKEGVYWGAAGGVYIGTEYGIERIRGSRDWKNAMLAGAATGAVLSAVGKKGKDTIVIDAILGGALATASQFVNNHYFY” the entry was “failed”; with “MPTDDIVQLLKGQEEAWNRGDLDAYMQGYWQNEQLMLISNGKFRNGWDETLAAYKKNYPDKESLGELKFTIKEIKMLSNYAAMVVGRWDLKRLKDTPTGVFTLLVEKIDDRWVITMDHSSD”, “not failed”; with “MPTFHEIDVLRHNSASWDAQAARDCEWSRPVSAEEVAAARRGDWAVKLTPGALPAHWLGDVRGREILCLASAGGQQAPILAAAGARVTLFDASAGQLDKDRQVAARDRLELACVQGDMRDLSTFADASFDLVFNPISNLYVDDVLPVWRECARVLRPGGKLLASFYNPALFIEDRSPELAEQGLIRPRHRLPYSDLESLSAEALAAKREKGEALVFGHSLTQQIAGQLAAGLLLQDFYEDWQPHPRFVIDRFVPTFLATCALKPRSAAG”, “failed”. Then “MPTISTSVCVNYTQDQMYELVNDVADYPKYLPLCRDVRVLSAADRHIKATITLAKGAVRLNFTTANTMEPGRHIHMKLVDGPFKYLRGNWRFDANPHGGCDVSFRVDFEFANPLLQMALGGIFREVMESLVAAFCNQAAKRYGNAGPALPPGQAQDGVGRSGSV”, with “failed”; and “MPTKKADIYTLAKFGDLGAFKESFKIENINDKSESGSGLLHYAISGLKFDIAMFLIENGIDVNITNEVGQTALHYICNYPNIDVAKCILKHGGDINIRDKYYNNALWTAVFNCKGRYYDMVELFMEYSPDVETKNNAGRSPLDFAIQVGNEKLIKMLRKKE”, with “failed”; and “MPTLEMPVAAVLDSTVGSSEALPDFTSDRYKDAYSRINAIVIEGEQEAHDNYIAIGTLLPDHVEELKRLAKMEMRHKKGFTACGKNLGVEADMDFAREFFAPLRDNFQTALGQGKTPTCLLIQALLIEAFAISAYHTYIPVSDPFARKITEGVVKDEYTHLNYGEAWLKANLESCREELLEANRENLPLIRRMLDQVAGDAAVLQMDKEDLIEDFLIAYQESLTEIGFNTREITRMAAAALVS”, with “not failed”. In the case of “MPTLKVAYIPEHFSTPLFFAQQQGYYKAHDLSIEFVKVPEGSGRLINLLNSNEVDIAIGLTEAFIADIAKGNENIHVLDTYVKSPLLWAVSTGSNRDDVTDAKQLKRIGVSRIGSGSYVMSFVLAHQLGVPSFDQFQVLSNFKNLRDSVNLKDGVEGSDAFMWEYFTSKKYYDNHEIKQIDQIYTPWSSWVVATSSDSLQAKSDVIKNFIDAVNQGIQYYNEHVDEAIEYISSNLDYSAEDAKEWTKTVEFNSRIGKTPLDWDTIVVKTKDTLKLAGVLAESDDVILKRLNSNVKKTNL”, the protein production result is “not failed”. With “MPTNQDLQLAAHLRSQVTTLTRRLRREAQADPVQFSQLVVLGAIDRLGGDVTPSELAAAERMRSSNLAALLRELERGGLIVRHADPQDGRRTRVSLSSEGRRNLYGNRAKREEWLVRAMHACLDESERALLAAAGPLLTRLAQFEEP” the entry was “not failed”; with “MPTPIHVLPPHVARLIAAGEVVSRPLDVVRELVENALDAGASRIEIEVDGGGLERVQVRDNGSGIAAQSVPLAPARHATSKLTAGPETGSLSVTTLGFRGEALWAAAQAGELELTTRPAAQVGAARLRAQGDAVEVSRTSAPAGTTVTVSQLFARLPARLRTQASAAAEVRDITALLGRYVLHHSALHWRLTVDGDPRLTHAPADHRGAVATVYGPLSANRVLTLDTPGVRGVVSRPELTRARRDRMHFAVNGRPIVAPPELERAVIDAYAELLPAGTAPLCVLDLTVAPEDYDPNIHPAKQVVALADLPAVALRVRDAVAGALAGHPLVRAAPALIAPPEPHPAPTAGNFPDLTLLGVYQELYLLAQGEGDLWVVDAHAAHERALYERLGRELGTAAPLELPTPELLHLTPEQTARLHERGAELRGWGLTIEDFGAGLARLRTLPAALAALPVPRLHEVVVETALSGGPDPRREVLARLACLPALKAGMLDAERGALVLAALRECEQPWACPHGRPTVLRLSERDLAHAFGRRGVRDVARGRDSVV”, “failed”.

For the sequence “MPTVSVKWQKKVLDGIEIDVSLPPYVFKAQLYDLTGVPPERQKIMVKGGLLKDDGDWAAIGVKDGQKLMMMGTADEIVKAPEKAIVFAEDLPEEALATNLGYSAGLVNLGNTCYMNSTVQCLKSVPELKSALSNYSLAARSNDVDQTSHMLTVATRELFGELDRSVLRKKYPQFSQLQNGMHMQQDAEECWTQLLYTLSQSLKAPTSSEGADAVKALFGVNLQSRIKLGVLDNVTDSTVISKCTLHCQESGEESSETESVYSLKCHISHEVNHLHEGLKHGLKGELEKTSPALGRTALYVKESLIDSLPRYLTVQFVRFFWKRESNQKAKILRKVDYPLVLDIFDLCSEDLRKKLEAPRQKLREEEGKKLGLQTSAKSGSKDSDVKMTDAEASANGSGESSTVNPQEGTSSEKETHMTGIYDLVAVLTHKGRSADSGHYVAWVKQESGKWIQYDDDNPSMQREEDITKLSGGGDWHMAYITMYKARFVSM”, the protein production result is “failed”. With “MPTYEELSQAVFEGDEAQVVELTRSLLSGGAEPLEVINKGLIAGMDRVGVLFKNNEMFVPEVLMSANAMNAGVEVVKQSQQAFDMPSVGKIVLGTVKGDLHDIGKNLVAMMLESGGFTVYNLGVDIEPGKFVEAVKKYQPDIVGMSALLTTTMMNMKSTIDALIAAGLRDRVKVIVGGAPLSQDFADEIGADGYAPDAASATELCRQLLE” the entry was “not failed”. As for “MPVCARAAAATGAAGHRSHLPEVTFCLRTIAERLHGGQHRRMNSSFCHLLHPLRLAAAFTIAAVALSFMPDASAHGAWRWGALAGFTALFVLHTVLPQTHALRTVATLLQAVLALLLVWIEPRAGTAPVLLVMLVAQAGMTWPPLRVLLLALALNAGMYAVLVHAGFDRALLIVSIYAGFQAFAALTAHYARSAERARDALAYVNADLLATRALLADSARDAERLRLARELHDVAGHKLTAMRINLRLLSADPALAQRDEVAVVEQLSAELLSDIRNVVQSLRDDQGLDLQTALRALAAPFPRPTLRLQIDADVRVTDARVAELLLRLVQEALTNAVRHADADEVAVHLHCEGAQLHVDICDDGRRAERIREGNGITGMRERLAALHGQLDLGRTPTGGMHLIARLPV”, the protein production result is listed as “failed”.
